{
  "source": "patent US6407062",
  "about": "(ST JUDE CHILDREN S RESEARCH HOSPITAL, dated 2000)",
  "key": {"[1]": {"biological_target": "T1, Hdm2 140-350 (polyhistidine-tagged, bacterial) (human, UniProt Q00987 140-350)", "T1 construct": "The sense primer places an ATG before residue 141, so position 140 of the construct may be Met; also called Hdm2 140-350 polypeptide; not shown: N-terminal polyhistidine tag of pET28a", "T1 sequence (Q00987 140-350)": "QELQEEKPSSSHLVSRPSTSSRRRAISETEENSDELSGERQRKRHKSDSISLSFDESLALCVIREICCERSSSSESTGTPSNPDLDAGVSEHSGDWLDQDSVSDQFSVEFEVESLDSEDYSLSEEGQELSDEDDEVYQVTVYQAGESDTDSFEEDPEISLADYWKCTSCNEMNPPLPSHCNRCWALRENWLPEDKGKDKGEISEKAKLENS", "assay": "immunoprecipitation and blot with bacterial Hdm2 140-350"}, "[2]": {"biological_target": "endogenous wild-type p53 of mouse fibroblasts (NIH-3T3 cells, MEFs) (mouse, UniProt P02340 1-390)", "sequence (P02340 whole entry)": "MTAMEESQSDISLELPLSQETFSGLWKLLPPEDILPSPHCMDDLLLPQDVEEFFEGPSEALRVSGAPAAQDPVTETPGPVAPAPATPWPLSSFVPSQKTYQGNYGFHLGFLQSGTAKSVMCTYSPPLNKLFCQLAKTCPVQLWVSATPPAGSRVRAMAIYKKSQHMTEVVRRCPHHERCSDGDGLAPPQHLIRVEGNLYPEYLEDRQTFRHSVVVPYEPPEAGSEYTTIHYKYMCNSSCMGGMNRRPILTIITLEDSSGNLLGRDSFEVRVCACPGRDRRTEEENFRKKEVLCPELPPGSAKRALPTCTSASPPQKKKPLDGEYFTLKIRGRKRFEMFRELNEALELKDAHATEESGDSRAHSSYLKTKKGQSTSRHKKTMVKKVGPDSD", "assay": "sequential immunoprecipitation from NIH-3T3 cells; EMSA"}, "[3]": {"biological_target": "T2, CDK4 (mouse, endogenous) (mouse, UniProt P30285 2-303)", "T2 sequence (looked up)": "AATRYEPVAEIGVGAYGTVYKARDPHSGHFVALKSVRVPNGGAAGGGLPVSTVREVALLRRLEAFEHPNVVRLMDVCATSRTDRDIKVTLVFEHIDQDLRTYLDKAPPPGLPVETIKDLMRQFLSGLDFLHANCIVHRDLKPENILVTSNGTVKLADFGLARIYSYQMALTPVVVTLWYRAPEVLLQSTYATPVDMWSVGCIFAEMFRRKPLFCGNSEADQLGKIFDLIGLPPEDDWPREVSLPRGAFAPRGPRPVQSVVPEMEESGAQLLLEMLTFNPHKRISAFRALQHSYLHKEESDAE", "assay": "immunoprecipitates from cell lysates blotted with anti-ARF-p19; Sf9 baculovirus reconstruction also gave no convincing evidence"}, "[4]": {"biological_target": "T3, CDC2 (mouse, endogenous) (mouse, UniProt P11440 1-297)", "T3 construct": "also called CDK1", "T3 sequence (P11440 whole entry)": "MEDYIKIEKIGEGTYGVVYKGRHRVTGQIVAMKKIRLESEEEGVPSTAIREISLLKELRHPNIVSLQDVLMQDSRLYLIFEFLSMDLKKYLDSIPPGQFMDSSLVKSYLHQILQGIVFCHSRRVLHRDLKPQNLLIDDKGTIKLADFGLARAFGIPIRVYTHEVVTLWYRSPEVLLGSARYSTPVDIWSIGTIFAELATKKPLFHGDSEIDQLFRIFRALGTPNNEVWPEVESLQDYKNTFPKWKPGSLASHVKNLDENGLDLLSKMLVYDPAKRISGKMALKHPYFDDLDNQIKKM", "assay": "immunoprecipitates from cell lysates blotted with anti-ARF-p19; Sf9 baculovirus reconstruction also gave no convincing evidence"}, "[5]": {"biological_target": "CDK6 (mouse, endogenous) (mouse, UniProt Q64261 1-326)", "sequence (Q64261 whole entry)": "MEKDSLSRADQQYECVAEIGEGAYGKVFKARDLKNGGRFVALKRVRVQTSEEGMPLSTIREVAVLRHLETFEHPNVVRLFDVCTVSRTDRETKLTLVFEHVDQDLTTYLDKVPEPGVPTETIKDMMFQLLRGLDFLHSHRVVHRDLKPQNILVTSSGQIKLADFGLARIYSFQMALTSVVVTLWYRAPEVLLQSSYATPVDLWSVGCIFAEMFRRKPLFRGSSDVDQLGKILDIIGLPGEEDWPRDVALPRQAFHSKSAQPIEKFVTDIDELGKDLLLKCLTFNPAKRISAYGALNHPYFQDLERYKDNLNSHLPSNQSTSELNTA", "assay": "immunoprecipitates from cell lysates blotted with anti-ARF-p19; Sf9 baculovirus reconstruction also gave no convincing evidence"}, "[6]": {"biological_target": "cyclin D1 (mouse, endogenous) (mouse, UniProt P25322 1-295)", "sequence (P25322 whole entry)": "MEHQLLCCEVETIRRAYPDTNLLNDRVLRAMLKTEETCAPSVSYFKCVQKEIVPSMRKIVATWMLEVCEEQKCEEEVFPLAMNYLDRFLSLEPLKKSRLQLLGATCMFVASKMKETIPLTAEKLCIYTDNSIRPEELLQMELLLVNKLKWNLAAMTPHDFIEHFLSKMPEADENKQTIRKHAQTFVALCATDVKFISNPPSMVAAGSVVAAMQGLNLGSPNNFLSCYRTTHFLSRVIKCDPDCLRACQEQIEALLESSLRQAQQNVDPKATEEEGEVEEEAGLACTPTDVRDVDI", "assay": "immunoprecipitates from cell lysates blotted with anti-ARF-p19; Sf9 baculovirus reconstruction also gave no convincing evidence"}, "[7]": {"biological_target": "cyclin D2 (mouse, endogenous) (mouse, UniProt P30280 1-289)", "sequence (P30280 whole entry)": "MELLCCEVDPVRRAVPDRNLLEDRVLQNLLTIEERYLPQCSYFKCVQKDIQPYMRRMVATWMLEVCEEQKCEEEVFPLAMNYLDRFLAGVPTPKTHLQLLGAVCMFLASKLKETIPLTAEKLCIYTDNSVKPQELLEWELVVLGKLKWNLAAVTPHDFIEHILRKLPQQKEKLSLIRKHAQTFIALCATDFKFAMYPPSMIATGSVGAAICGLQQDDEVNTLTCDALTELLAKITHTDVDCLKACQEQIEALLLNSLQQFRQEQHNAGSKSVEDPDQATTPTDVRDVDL", "assay": "immunoprecipitates from cell lysates blotted with anti-ARF-p19; Sf9 baculovirus reconstruction also gave no convincing evidence"}, "[8]": {"biological_target": "cyclin A (mouse, endogenous) (mouse, UniProt P51943 1-422, limits assumed)", "sequence (P51943 whole entry)": "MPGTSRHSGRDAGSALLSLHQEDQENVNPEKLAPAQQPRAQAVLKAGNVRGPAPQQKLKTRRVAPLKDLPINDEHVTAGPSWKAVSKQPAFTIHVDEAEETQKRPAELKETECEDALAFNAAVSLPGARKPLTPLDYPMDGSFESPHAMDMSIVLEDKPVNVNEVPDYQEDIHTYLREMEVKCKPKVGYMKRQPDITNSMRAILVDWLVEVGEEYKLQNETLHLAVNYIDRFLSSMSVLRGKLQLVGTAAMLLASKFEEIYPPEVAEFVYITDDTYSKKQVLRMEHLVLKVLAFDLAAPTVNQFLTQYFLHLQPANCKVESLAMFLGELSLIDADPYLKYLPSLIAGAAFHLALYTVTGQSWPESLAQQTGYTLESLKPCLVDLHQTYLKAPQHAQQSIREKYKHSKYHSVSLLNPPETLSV", "assay": "immunoprecipitates from cell lysates blotted with anti-ARF-p19; Sf9 baculovirus reconstruction also gave no convincing evidence"}, "[9]": {"biological_target": "T4, Hdm2 (Human Double Minute 2, full-length, untagged) (human, UniProt Q00987 1-491)", "T4 construct": "GenBank M92424 printed; also called wild type Hdm2", "T4 sequence (Q00987 whole entry)": "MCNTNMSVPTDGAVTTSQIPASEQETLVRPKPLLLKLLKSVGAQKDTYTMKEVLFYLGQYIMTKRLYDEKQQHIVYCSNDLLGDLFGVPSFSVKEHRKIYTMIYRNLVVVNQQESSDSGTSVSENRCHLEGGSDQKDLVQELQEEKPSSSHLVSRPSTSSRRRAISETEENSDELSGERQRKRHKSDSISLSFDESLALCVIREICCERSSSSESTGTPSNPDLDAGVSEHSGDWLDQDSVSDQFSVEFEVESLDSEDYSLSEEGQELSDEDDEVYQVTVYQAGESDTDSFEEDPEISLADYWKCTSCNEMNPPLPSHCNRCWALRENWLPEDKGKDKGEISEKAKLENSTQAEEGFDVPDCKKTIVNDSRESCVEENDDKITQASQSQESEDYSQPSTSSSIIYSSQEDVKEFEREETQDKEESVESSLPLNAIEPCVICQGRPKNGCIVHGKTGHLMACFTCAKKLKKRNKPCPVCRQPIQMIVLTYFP", "assay": "binding assay not described further"}, "[10]": {"biological_target": "T5, Hdm2 210-304 (polyhistidine-tagged, bacterial) (human, UniProt Q00987 210-304)", "T5 construct": "The sense primer places an ATG before residue 211; not shown: N-terminal polyhistidine tag of pET28a", "T5 sequence (Q00987 210-304)": "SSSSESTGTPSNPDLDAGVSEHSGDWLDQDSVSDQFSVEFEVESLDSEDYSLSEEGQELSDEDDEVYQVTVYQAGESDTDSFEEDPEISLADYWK", "assay": "FPLC affinity chromatography, NaCl gradient then acid"}, "[11]": {"biological_target": "T1, Hdm2 140-350 (polyhistidine-tagged, …)", "assay": "FPLC affinity chromatography, ARF polypeptide coupled to Sepharose, NaCl gradient then acid"}, "[12]": {"biological_target": "T6, Mdm2 (Murine Double Minute 2, full-length) (mouse, UniProt P23804 1-489)", "T6 construct": "Full-length protein made in Sf9 cells from a baculovirus, or endogenous in NIH-3T3 cells; GenBank X58876 printed; also called wild type Mdm2; full-length Mdm2", "T6 sequence (P23804 other isoform, or with tags, fused parts or gaps limits assumed)": "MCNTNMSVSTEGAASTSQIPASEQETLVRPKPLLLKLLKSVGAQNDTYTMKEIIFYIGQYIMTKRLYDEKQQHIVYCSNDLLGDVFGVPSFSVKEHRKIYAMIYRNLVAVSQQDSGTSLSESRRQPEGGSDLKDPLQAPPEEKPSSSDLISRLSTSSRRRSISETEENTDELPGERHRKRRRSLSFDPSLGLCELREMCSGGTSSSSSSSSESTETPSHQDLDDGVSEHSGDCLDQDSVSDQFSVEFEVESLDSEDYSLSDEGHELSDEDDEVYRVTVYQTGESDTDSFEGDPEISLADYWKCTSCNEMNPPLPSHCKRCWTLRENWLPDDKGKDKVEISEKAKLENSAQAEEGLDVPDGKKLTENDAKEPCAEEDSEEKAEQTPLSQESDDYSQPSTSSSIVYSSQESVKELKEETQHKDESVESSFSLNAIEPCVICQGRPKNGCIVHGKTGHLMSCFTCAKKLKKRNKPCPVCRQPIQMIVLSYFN", "assay": "His-tagged syn-ARF N37 mixed with Mdm2 from Sf9 cells, immunoprecipitation with 2A10 or anti-polyhistidine and blot"}, "[13]": {"biological_target": "T1, Hdm2 140-350 (polyhistidine-tagged, …)", "assay": "FPLC affinity chromatography on peptide coupled to Sepharose"}, "[14]": {"biological_target": "T5, Hdm2 210-304 (polyhistidine-tagged, …)", "assay": "FPLC affinity chromatography on peptide coupled to Sepharose"}, "[15]": {"biological_target": "T2, CDK4 (mouse, endogenous)", "assay": "p16 immunoprecipitates blotted with antiserum to CDK4"}},
  "data": [
    {"binder": "mouse p19^ARF Δ1-14 (HA-tagged deletion mutant) (other, also called p19^ARF mutant lacking amino acid residues 1-14; not shown: N-terminal HA tag of the HA-tagged ARF cDNA template) GRPLQERVFLVKFVRSRRPRTASCALAFVNMLLRLERILRRGPHRNPGPGDDDGQRSRSSSSAQLRCRFELRGPHYLLPPGARRSAGRLPGHAGGAARVRGSAGCARCLGSPAARLGPRAGTSRHRAIFAFRWVLFVFRWVVFVYRWERRPDRRA", "values": [
      {"measurement": "binding result", "setting": "[1]", "result": "binds"}
    ]},
    {"binder": "mouse p19^ARF Δ26-37 (HA-tagged deletion mutant) (other, also called HA-ARF Δ26-37; not shown: N-terminal HA tag) MGRRFLVTVRIQRAGRPLQERVFLVCALAFVNMLLRLERILRRGPHRNPGPGDDDGQRSRSSSSAQLRCRFELRGPHYLLPPGARRSAGRLPGHAGGAARVRGSAGCARCLGSPAARLGPRAGTSRHRAIFAFRWVLFVFRWVVFVYRWERRPDRRA", "values": [
      {"measurement": "binding result", "setting": "[1]", "result": "binds"}
    ]},
    {"binder": "ARF-p19 (mouse, full-length 169 amino acid protein) (other, also called p19^ARF; p19^ARF protein) MGRRFLVTVRIQRAGRPLQERVFLVKFVRSRRPRTASCALAFVNMLLRLERILRRGPHRNPGPGDDDGQRSRSSSSAQLRCRFELRGPHYLLPPGARRSAGRLPGHAGGAARVRGSAGCARCLGSPAARLGPRAGTSRHRAIFAFRWVLFVFRWVVFVYRWERRPDRRA", "values": [
      {"measurement": "binding result", "setting": "[2]", "result": "binds"},
      {"measurement": "binding result", "setting": "[3]", "result": "no binding"},
      {"measurement": "binding result", "setting": "[4]", "result": "no binding"},
      {"measurement": "binding result", "setting": "[5]", "result": "no binding"},
      {"measurement": "binding result", "setting": "[6]", "result": "no binding"},
      {"measurement": "binding result", "setting": "[7]", "result": "no binding"},
      {"measurement": "binding result", "setting": "[8]", "result": "no binding"}
    ]},
    {"binder": "mouse p19^ARF Δ15-25 (HA-tagged deletion mutant) (other, not shown: N-terminal HA tag of the HA-tagged ARF cDNA template) MGRRFLVTVRIQRAKFVRSRRPRTASCALAFVNMLLRLERILRRGPHRNPGPGDDDGQRSRSSSSAQLRCRFELRGPHYLLPPGARRSAGRLPGHAGGAARVRGSAGCARCLGSPAARLGPRAGTSRHRAIFAFRWVLFVFRWVVFVYRWERRPDRRA", "values": [
      {"measurement": "binding result", "setting": "[1]", "result": "binds"}
    ]},
    {"binder": "syn-ARF N64 (polyhistidine-tagged mouse ARF residues 1-64, made in bacteria) (other, also called minigene-encoded N64 polypeptide; not shown: N-terminal polyhistidine tag of pET28a) MGRRFLVTVRIQRAGRPLQERVFLVKFVRSRRPRTASCALAFVNMLLRLERILRRGPHRNPGPG", "values": [
      {"measurement": "binding result", "setting": "[9]", "result": "binds"}
    ]},
    {"binder": "MGRRFLVTVRIQRAGRPLQERVFLVKFVRSRRPRTAS (also called Synthetic ARF N37; recombinant syn-ARF N37; not shown: N-terminal polyhistidine tag of pET28a)", "note": "[syn-ARF N37 (polyhistidine-tagged mouse ARF residues 1-37, made in bacteria)]", "values": [
      {"measurement": "binding result", "setting": "[10]", "result": "binds"},
      {"measurement": "binding result", "setting": "[11]", "result": "binds"},
      {"measurement": "binding result", "setting": "[12]", "result": "binds"}
    ]},
    {"binder": "ARF N62 (mouse p19^ARF N-terminal 62 amino acids, HA-tagged) (other, not shown: small tags and cut ends, Produced in Sf9 cells; also called HA-tagged N62; ARF N62 mutant) MGRRFLVTVRIQRAGRPLQERVFLVKFVRSRRPRTASCALAFVNMLLRLERILRRGPHRNPG", "values": [
      {"measurement": "binding result", "setting": "[9]", "result": "binds"}
    ]},
    {"binder": "GRPLQERVFLV (Coupled to Sepharose; also called ARF 15-25)", "note": "[mouse ARF synthetic peptide 15-25]", "values": [
      {"measurement": "binding result", "setting": "[13]", "result": "no binding"},
      {"measurement": "binding result", "setting": "[14]", "result": "no binding"}
    ]},
    {"binder": "mouse p19^ARF Δ1-14/Δ26-37 (HA-tagged double-deletion mutant) (other, also called ARF Δ1-14/26-37; not shown: N-terminal HA tag) GRPLQERVFLVCALAFVNMLLRLERILRRGPHRNPGPGDDDGQRSRSSSSAQLRCRFELRGPHYLLPPGARRSAGRLPGHAGGAARVRGSAGCARCLGSPAARLGPRAGTSRHRAIFAFRWVLFVFRWVVFVYRWERRPDRRA", "values": [
      {"measurement": "binding result", "setting": "[1]", "result": "no binding"}
    ]},
    {"binder": "InK4a-p16 (mouse) (other, UniProt P51480 1-168, looked up, not used; also called p16^INK4a) MESAADRLARAAAQGRVHDVRALLEAGVSPNAPNSFGRTPIQVMMMGNVHVAALLLNYGADSNCEDPTTFSRPVHDAAREGFLDTLVVLHGSGARLDVRDAWGRLPLDLAQERGHQDIVRYLRSAGCSLCSAGWSLCTAGNVAQTDGHSFSSSTPRALELRGQSQEQS", "values": [
      {"measurement": "binding result", "setting": "[15]", "result": "binds"}
    ]}
  ]
}
